Biological target: T1, wild-type (WT) Kir2.1 subunit (human, UniProt P63252 1-427)
T1 sequence: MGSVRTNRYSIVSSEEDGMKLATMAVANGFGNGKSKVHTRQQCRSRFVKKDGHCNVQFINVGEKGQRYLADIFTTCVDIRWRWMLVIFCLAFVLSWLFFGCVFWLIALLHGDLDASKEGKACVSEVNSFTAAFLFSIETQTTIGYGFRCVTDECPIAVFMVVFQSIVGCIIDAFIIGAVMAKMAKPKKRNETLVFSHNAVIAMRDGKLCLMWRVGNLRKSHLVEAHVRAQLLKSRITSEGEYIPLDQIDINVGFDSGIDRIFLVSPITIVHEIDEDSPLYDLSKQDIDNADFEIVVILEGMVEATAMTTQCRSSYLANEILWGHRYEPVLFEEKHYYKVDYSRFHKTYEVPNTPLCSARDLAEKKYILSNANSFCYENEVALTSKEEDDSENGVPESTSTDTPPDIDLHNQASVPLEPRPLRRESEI
Assay: cell-based or functional assay

B1: D71V Kir2.1 mutant subunit (other)
chain: MGSVRTNRYSIVSSEEDGMKLATMAVANGFGNGKSKVHTRQQCRSRFVKKDGHCNVQFINVGEKGQRYLAVIFTTCVDIRWRWMLVIFCLAFVLSWLFFGCVFWLIALLHGDLDASKEGKACVSEVNSFTAAFLFSIETQTTIGYGFRCVTDECPIAVFMVVFQSIVGCIIDAFIIGAVMAKMAKPKKRNETLVFSHNAVIAMRDGKLCLMWRVGNLRKSHLVEAHVRAQLLKSRITSEGEYIPLDQIDINVGFDSGIDRIFLVSPITIVHEIDEDSPLYDLSKQDIDNADFEIVVILEGMVEATAMTTQCRSSYLANEILWGHRYEPVLFEEKHYYKVDYSRFHKTYEVPNTPLCSARDLAEKKYILSNANSFCYENEVALTSKEEDDSENGVPESTSTDTPPDIDLHNQASVPLEPRPLRRESEI
Reduction in current on co-expression of WT and D71V subunits, relative to WT current: ~0.938 fraction of WT current
